Test results as given in patent US20110287512.

Experiments:
[1] = tested on: ZFP8196 (host, center linker TGEKP) (artificial); assay: ELONA
[2] = tested on: ZFP8196 linker 1c center linker F2-F3 TGEKP replaced by THPRAPIPKP (artificial); assay: ELONA; settings: normalized ELISA score
[3] = tested on: ZFP8196 linker 1d center linker F2-F3 TGEKP replaced by TPNRRPAPKP (artificial); assay: ELONA; settings: normalized ELISA score
[4] = tested on: ZFP8196 linker 1f center linker F2-F3 TGEKP replaced by TYPRPIAAKP (artificial); assay: ELONA; settings: normalized ELISA score
[5] = tested on: ZFP8196 linker 2d center linker F2-F3 TGEKP replaced by TLAPRPYRPPKP (artificial); assay: ELONA
[6] = tested on: ZFP8196 linker 2e center linker F2-F3 TGEKP replaced by TPGGKSSRTDRNKP (artificial); assay: ELONA
[7] = tested on: ZFP8196 linker 2f center linker F2-F3 TGEKP replaced by TPNPHRRTDPSHKP (artificial); assay: ELONA
[8] = tested on: ZFP8196 linker LRQKDERP center linker F2-F3 TGEKP replaced by LRQKDERP (artificial); assay: ELONA; settings: normalized ELISA score
[9] = tested on: ZFP8196 linker LRQKDGGGSERP (Kim, Pabo) center linker F2-F3 TGEKP replaced by LRQKDGGGSERP (artificial); assay: ELONA
[10] = tested on: ZFP8196 linker TASCPRPFRPPKP center linker F2-F3 TGEKP replaced by TASCPRPFRPPKP (artificial); assay: ELONA; settings: normalized ELISA score
[11] = tested on: ZFP8196 linker TCPRPPTRKP center linker F2-F3 TGEKP replaced by TCPRPPTRKP (artificial); assay: ELONA; settings: normalized ELISA score
[12] = tested on: ZFP8196 linker TEPRAKPPKP center linker F2-F3 TGEKP replaced by TEPRAKPPKP (artificial); assay: ELONA; settings: normalized ELISA score
[13] = tested on: ZFP8196 linker TETTRPFRPPKP center linker F2-F3 TGEKP replaced by TETTRPFRPPKP (artificial); assay: ELONA; settings: normalized ELISA score
[14] = tested on: ZFP8196 linker TGEARPYRPPKP center linker F2-F3 TGEKP replaced by TGEARPYRPPKP (artificial); assay: ELONA; settings: normalized ELISA score
[15] = tested on: ZFP8196 linker TGEGGKP center linker F2-F3 TGEKP replaced by TGEGGKP (artificial); assay: ELONA; settings: normalized ELISA score
[16] = tested on: ZFP8196 linker TGGGGSGGSQKP (flexible) center linker F2-F3 TGEKP replaced by TGGGGSGGSQKP (artificial); assay: ELONA
[17] = tested on: ZFP8196 linker TGGGGSQKP center linker F2-F3 TGEKP replaced by TGGGGSQKP (artificial); assay: ELONA; settings: normalized ELISA score
[18] = tested on: ZFP8196 linker TGSLRPYRRPKP center linker F2-F3 TGEKP replaced by TGSLRPYRRPKP (artificial); assay: ELONA; settings: normalized ELISA score
[19] = tested on: ZFP8196 linker TGYSIPRPKP center linker F2-F3 TGEKP replaced by TGYSIPRPKP (artificial); assay: ELONA; settings: normalized ELISA score
[20] = tested on: ZFP8196 linker TNTTRPYRPPKP center linker F2-F3 TGEKP replaced by TNTTRPYRPPKP (artificial); assay: ELONA; settings: normalized ELISA score
[21] = tested on: ZFP8196 linker TPDAPKPKP center linker F2-F3 TGEKP replaced by TPDAPKPKP (artificial); assay: ELONA; settings: normalized ELISA score
[22] = tested on: ZFP8196 linker TPDRPISTCKP center linker F2-F3 TGEKP replaced by TPDRPISTCKP (artificial); assay: ELONA; settings: normalized ELISA score
[23] = tested on: ZFP8196 linker TPGLHRPKP center linker F2-F3 TGEKP replaced by TPGLHRPKP (artificial); assay: ELONA; settings: normalized ELISA score
[24] = tested on: ZFP8196 linker TPSHTPRPKP center linker F2-F3 TGEKP replaced by TPSHTPRPKP (artificial); assay: ELONA; settings: normalized ELISA score
[25] = tested on: ZFP8196 linker TSINRPFRRPKP center linker F2-F3 TGEKP replaced by TSINRPFRRPKP (artificial); assay: ELONA; settings: normalized ELISA score
[26] = tested on: ZFP8196 linker TSPRLPAPKP center linker F2-F3 TGEKP replaced by TSPRLPAPKP (artificial); assay: ELONA; settings: normalized ELISA score
[27] = tested on: ZFP8196 linker TSSPRSNAKP center linker F2-F3 TGEKP replaced by TSSPRSNAKP (artificial); assay: ELONA; settings: normalized ELISA score
[28] = tested on: ZFP8196 linker TVSPAPCRSKP center linker F2-F3 TGEKP replaced by TVSPAPCRSKP (artificial); assay: ELONA; settings: normalized ELISA score
[29] = tested on: ZFP7263 (host, center linker TGSQKP) (artificial)
[30] = tested on: ZFP7263 linker LRQKDERP (artificial)
[31] = tested on: ZFP7263 linker TGEGGKP (artificial)
[32] = tested on: ZFP7263 linker TGGGGSQKP (artificial)
[33] = tested on: ZFP7263 linker TPLCQRPMKQKP (artificial)
[34] = tested on: ZFP7263 linker TPNRCPPTKP (artificial)
[35] = tested on: ZFP7263 linker TPRPPIPKP (artificial)
[36] = tested on: ZFP7263 linker TQRPQIPPKP (artificial)
[37] = tested on: ZFP7263 linker TYPRPLLAKP (artificial)
[38] = tested on: ZFP7264 (host, center linker TGSQKP) (artificial)
[39] = tested on: ZFP7264 linker 1e (artificial)
[40] = tested on: ZFP7264 linker LRQKDERP (artificial)
[41] = tested on: ZFP7264 linker TGEGGKP (artificial)
[42] = tested on: ZFP7264 linker TGGGGSQKP (artificial)
[43] = tested on: ZFP7264 linker TGLPKPKP (artificial)
[44] = tested on: ZFP7264 linker TKHGTPKHREDKP (artificial)
[45] = tested on: ZFP7264 linker TLPLPRPKP (artificial)
[46] = tested on: ZFP7264 linker TLPPCFRPKP (artificial)
[47] = tested on: ZFP7264 linker TSRPRPKP (artificial)
[48] = tested on: ZFP7264 (host, center linker TGSQKP) (artificial); assay: ELONA
[49] = tested on: ZFP7264 linker 1e center linker F2-F3 TGSQKP replaced by TVPRPTPPKP (artificial); assay: ELONA; settings: normalized ELISA score
[50] = tested on: ZFP7264 linker LRQKDERP center linker F2-F3 TGSQKP replaced by LRQKDERP (artificial); assay: ELONA; settings: normalized ELISA score
[51] = tested on: ZFP7264 linker TGEGGKP center linker F2-F3 TGSQKP replaced by TGEGGKP (artificial); assay: ELONA; settings: normalized ELISA score
[52] = tested on: ZFP7264 linker TGGGGSQKP center linker F2-F3 TGSQKP replaced by TGGGGSQKP (artificial); assay: ELONA; settings: normalized ELISA score
[53] = tested on: ZFP7264 linker TGLPKPKP center linker F2-F3 TGSQKP replaced by TGLPKPKP (artificial); assay: ELONA; settings: normalized ELISA score
[54] = tested on: ZFP7264 linker TKHGTPKHREDKP center linker F2-F3 TGSQKP replaced by TKHGTPKHREDKP (artificial); assay: ELONA; settings: normalized ELISA score
[55] = tested on: ZFP7264 linker TLPLPRPKP center linker F2-F3 TGSQKP replaced by TLPLPRPKP (artificial); assay: ELONA; settings: normalized ELISA score
[56] = tested on: ZFP7264 linker TLPPCFRPKP center linker F2-F3 TGSQKP replaced by TLPPCFRPKP (artificial); assay: ELONA; settings: normalized ELISA score
[57] = tested on: ZFP7264 linker TSRPRPKP center linker F2-F3 TGSQKP replaced by TSRPRPKP (artificial); assay: ELONA; settings: normalized ELISA score
[58] = ELISA normalized to host on 0-bp gap target (reference)
[59] = normalized ELISA score averaged over 16 2-bp gaps

TTAGATAAACTGCAAAAGGCTATC (double strand) [8196 target 0-bp gap]
binding signal [1, 58]: 1
binding signal [2]: 0
binding signal [3]: 0
binding signal [4]: 0.01
binding signal ([5]; normalized ELISA score): 0.005
binding signal ([6]; normalized ELISA score): 0.005
binding signal ([7]; normalized ELISA score): 0.003
binding signal [8]: 0.01
binding signal ([9]; normalized ELISA score): 0.01
binding signal [10]: 0.01
binding signal [11]: 0
binding signal [12]: 0.01
binding signal [13]: 0.001
binding signal [14]: 0.001
binding signal [15]: 0.1
binding signal ([16]; normalized ELISA score): 0.019
binding signal [17]: 0
binding signal [18]: 0.001
binding signal [19]: 0.01
binding signal [20]: 0.001
binding signal [21]: 0.02
binding signal [22]: 0.01
binding signal [23]: 0.04
binding signal [24]: 0.02
binding signal [25]: 0.01
binding signal [26]: 0.01
binding signal [27]: 0.01
binding signal [28]: 0.01

TTAGATAAACTGNNCAAAAGGCTATC (double strand) [8196 targets 2-bp gap, all 16 compositions]
binding signal [5, 59]: 0.127
binding signal [6, 59]: 0.1
binding signal [7, 59]: 0.219
binding signal [9, 59]: 0.003
binding signal ([10]; pool of 16 2-bp gaps): 0.37
binding signal ([13]; pool of 16 2-bp gaps): 0.57
binding signal ([14]; pool of 16 2-bp gaps): 0.61
binding signal [16, 59]: 0.01
binding signal ([18]; pool of 16 2-bp gaps): 0.31
binding signal ([20]; pool of 16 2-bp gaps): 0.41
binding signal ([25]; pool of 16 2-bp gaps): 0.57

TTAGATAAACTGTCAAAAGGCTATC (double strand) [8196 target gap T]
binding signal ([1]; normalized ELISA score): 0.01
binding signal [2]: 0.6
binding signal [3]: 0.52
binding signal [4]: 0.64
binding signal [8]: 0.08
binding signal [11]: 0.62
binding signal [12]: 0.93
binding signal [15]: 0.03
binding signal [17]: 0
binding signal [19]: 0.55
binding signal [21]: 0.95
binding signal [22]: 0.47
binding signal [23]: 0.81
binding signal [24]: 0.8
binding signal [26]: 0.81
binding signal [27]: 0.25
binding signal [28]: 0.19

TTAGCCACTCTGATTGGAAGTGTATC (double strand) [7263 target gap AT]
binding signal (normalized ELISA) [29]: 0.01
binding signal (normalized ELISA) [30]: 0.01
binding signal (normalized ELISA) [31]: 0.01
binding signal (normalized ELISA) [32]: 0.01
binding signal (normalized ELISA) [33]: 0.05
binding signal (normalized ELISA) [34]: 0.02
binding signal (normalized ELISA) [35]: 0.01
binding signal (normalized ELISA) [36]: 0.02
binding signal (normalized ELISA) [37]: 0.01

TTAGCCACTCTGCTTGGAAGTGTATC (double strand) [7263 target gap CT]
binding signal (normalized ELISA) [29]: 0
binding signal (normalized ELISA) [30]: 0.01
binding signal (normalized ELISA) [31]: 0.01
binding signal (normalized ELISA) [32]: 0.02
binding signal (normalized ELISA) [33]: 0.02
binding signal (normalized ELISA) [34]: 0.01
binding signal (normalized ELISA) [35]: 0.01
binding signal (normalized ELISA) [36]: 0.01
binding signal (normalized ELISA) [37]: 0.01

TTAGTTAAAGCGCTGCTCCGAATATC (double strand) [7264 target gap CT]
binding signal (normalized ELISA) [38]: 0
binding signal (normalized ELISA) [39]: 0.06
binding signal (normalized ELISA) [40]: 0.02
binding signal (normalized ELISA) [41]: 0.03
binding signal (normalized ELISA) [42]: 0.07
binding signal (normalized ELISA) [43]: 0.02
binding signal (normalized ELISA) [44]: 0
binding signal (normalized ELISA) [45]: 0.03
binding signal (normalized ELISA) [46]: 0.05
binding signal (normalized ELISA) [47]: 0.03

TTAGTTAAAGCGGCTCCGAATATC (double strand) [7264 target 0-bp gap]
binding signal [48, 58]: 1
binding signal [49]: 0.16
binding signal [50]: 0.26
binding signal [51]: 1.39
binding signal [52]: 0.46
binding signal [53]: 0.14
binding signal [54]: 0.01
binding signal [55]: 0.25
binding signal [56]: 0.36
binding signal [57]: 0.18

TTAGTTAAAGCGTGCTCCGAATATC (double strand) [7264 target gap T]
binding signal ([48]; normalized ELISA score): 0
binding signal [49]: 2.55
binding signal [50]: 0.1
binding signal [51]: 0.08
binding signal [52]: 0.17
binding signal [53]: 0.86
binding signal [54]: 0.01
binding signal [55]: 1.36
binding signal [56]: 2.72
binding signal [57]: 2.07
